Source: PMC9747964 (Nature Communications, 2022)
Substitutions are numbered along the chain they refer to.

How the values were obtained:
Conditions in all cases: protein: recombinant; tags: as P1; blunt
ComEAGs-A108Y [1] = target: T1, ComEAGs-A108Y (Geobacillus stearothermophilus (ATCC …, UniProt A0A0K9HI54 60-207, A108Y)); assay: MW-AUC; 1.5 uM DNA, 10:1 protein:DNA; >90% DNA bound; ~4.7:1 complex, 6.3 S; MW-AUC: 10 mM Tris pH 8, 100 mM KCl, 20 C; EMSA: 10 mM Tris pH 8, 100 mM KCl, 2.5% glycerol, 0.5 mM EDTA, 1 mM MgCl2, room temperature 15 min, 8% native gel in
T1 sequence: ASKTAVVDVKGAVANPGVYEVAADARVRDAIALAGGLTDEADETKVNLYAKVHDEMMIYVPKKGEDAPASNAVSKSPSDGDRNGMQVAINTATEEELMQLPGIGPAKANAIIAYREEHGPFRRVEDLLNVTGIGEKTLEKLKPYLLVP

ComEAGs-K166A = target: T2, ComEAGs-K166A (Geobacillus stearothermophilus (ATCC …, UniProt A0A0K9HI54 60-207, K166A)); assay: EMSA; 0.5 uM DNA, 1 mM MgCl2; MW-AUC: 10 mM Tris pH 8, 100 mM KCl, 20 C; EMSA: 10 mM Tris pH 8, 100 mM KCl, 2.5% glycerol, 0.5 mM EDTA, 1 mM MgCl2, room temperature 15 min, 8% native gel in
T2 sequence: T1 sequence with Y49A, K107A

ComEAGs-K201A = target: T3, ComEAGs-K201A (Geobacillus stearothermophilus (ATCC …, UniProt A0A0K9HI54 60-207, K201A)); assay: as above
T3 sequence: T1 sequence with Y49A, K142A

ComEAGs-A108Y [2] = target: T1, ComEAGs-A108Y; assay: MW-AUC; 1.5 uM DNA, 5:1 and 10:1 protein:DNA; >90% DNA bound; ~2:1 complex, 3.3-3.5 S; MW-AUC: 10 mM Tris pH 8, 100 mM KCl, 20 C; EMSA: 10 mM Tris pH 8, 100 mM KCl, 2.5% glycerol, 0.5 mM EDTA, 1 mM MgCl2, room temperature 15 min, 8% native gel in

B1: EAGs40bp (dsDNA)
DNA 1: CGTTAGCACTGTGAATATCACTACAGCAACCTTAGAATCG
DNA 2: CGATTCTAAGGTTGCTGTAGTGATATTCACAGTGCTAACG
B1: binds (ComEAGs-A108Y [1]).

B2: EAGs30bp (dsDNA)
DNA 1: GCACTGTGAATATCACTACAGCAACCTTAG
DNA 2: CTAAGGTTGCTGTAGTGATATTCACAGTGC
With B2 the binding result (ComEAGs-K166A) was “no binding” and the binding signal (ComEAGs-K201A) was ~2 fold decrease in apparent affinity vs wild-type.

B3: EAGs14bp (dsDNA)
DNA 1: GTAGGACCATCTGC
DNA 2: GCAGATGGTCCTAC
B3: binds (ComEAGs-A108Y [2]).
